Results on three molecules are retold here after patent US20220153832A1 (PIONYR IMMUNOTHERAPEUTICS, published 2022).

Experiment [1] addresses T1, N-terminally polyhistidine tagged human MARCO ECD (147-520), recombinant (human, UniProt Q9UEW3 147-520).
T1 construct: also called PI-RG-3000; recombinant human MARCO; not shown: N-terminal polyhistidine tag
T1 sequence: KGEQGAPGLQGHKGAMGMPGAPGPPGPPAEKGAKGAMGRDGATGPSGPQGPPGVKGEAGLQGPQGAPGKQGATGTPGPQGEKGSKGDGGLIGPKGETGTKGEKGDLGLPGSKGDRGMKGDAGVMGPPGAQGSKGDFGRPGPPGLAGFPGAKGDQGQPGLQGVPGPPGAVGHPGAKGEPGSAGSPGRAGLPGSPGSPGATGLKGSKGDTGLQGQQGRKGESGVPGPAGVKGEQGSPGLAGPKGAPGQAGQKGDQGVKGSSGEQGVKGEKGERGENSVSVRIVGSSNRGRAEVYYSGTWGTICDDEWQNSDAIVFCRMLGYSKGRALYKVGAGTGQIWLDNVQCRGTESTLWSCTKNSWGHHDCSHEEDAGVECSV
Put plainly: ELISA on recombinant human MARCO, 0 mM EDTA. As for the experimental part: (§1) After the plates were incubated at room temperature for 1 hour or 4° C. overnight, the plates were wash 3 times with ELISA wash buffer (PBS/0.05% TWEEN-20), then hybridoma supernatant (1:5 dilution) or purified antibody (1 ug) was diluted in DPBS/Ca2+/2% FBS, DPBS without Ca2+/2 mM EDTA/2% FBS, DPBS without Ca2+/10 mM EDTA/2% FBS, and DPBS without Ca2+/50 mM EDTA/2% FBS. Plates again were incubated at room temperature for 1 hour.

The target of experiment [2] is T1, N-terminally polyhistidine tagged human …. The experiment is described as follows: label-free kinetics (ProbeLife Gator), mAb captured, human MARCO. As for the experimental part: (§2) The kinetics assay used either anti-mouse Fc or anti-human Fc probes to capture the anti-MARCO antibodies onto the probe, and then a five-step kinetic protocol was used to measure the affinity of the antibodies to the antigen, including the following steps: baseline, loading, baseline, association, and dissociation. The kinetics buffer (K buffer) provided by ProbeLife was used to establish the baseline for 60 seconds, and then the anti-mFc or anti-hFc probes were loaded with 200 nM of the antibodies for 120s until the capture reached saturation, measurement of the baseline in K buffer was performed for another 60s, followed by the association step using 200 nM antigen (human MARCO, mouse MARCO or cyno MARCO), and the dissociation step performed in K buffer for 5-10 minutes. The assay was done at 37° C. to maximize antibody:antigen dissociation.
Kinetics and epitope binning analysis of the newly generated anti-human MARCO antibodies was performed as described in Example 3.

Experiment [3] has as its target T2, Human Macrophage Receptor with Collagenous Structure (MARCO), full length, on cells (human, UniProt Q9UEW3 1-520).
T2 construct: the cell type is named under assay; also called huMARCO; HuMARCO
T2 sequence: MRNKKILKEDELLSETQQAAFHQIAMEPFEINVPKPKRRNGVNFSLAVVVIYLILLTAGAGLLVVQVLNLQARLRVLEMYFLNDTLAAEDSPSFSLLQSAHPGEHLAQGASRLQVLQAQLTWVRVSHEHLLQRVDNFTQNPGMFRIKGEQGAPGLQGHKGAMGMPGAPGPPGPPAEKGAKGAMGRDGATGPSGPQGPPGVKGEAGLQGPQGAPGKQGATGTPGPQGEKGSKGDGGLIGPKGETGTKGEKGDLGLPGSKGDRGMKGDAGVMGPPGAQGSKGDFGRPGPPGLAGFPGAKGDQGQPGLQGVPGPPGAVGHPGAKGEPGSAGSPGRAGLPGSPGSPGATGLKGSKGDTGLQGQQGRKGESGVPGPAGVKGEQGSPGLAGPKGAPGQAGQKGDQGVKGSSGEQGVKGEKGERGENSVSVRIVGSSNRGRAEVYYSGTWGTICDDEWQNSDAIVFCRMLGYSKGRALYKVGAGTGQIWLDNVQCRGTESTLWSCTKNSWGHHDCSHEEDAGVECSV
Put plainly: flow cytometry, 293T (HuMARCO). As for the experimental part:
(§3) Supernatants were removed and cell pellets were resuspended in Ca²⁺+ and Mg²⁺+ Dulbecco's phosphate-buffered saline (D-PBS) at 1×10⁶ cells/ml. 100,000 cells/well were plated onto U-bottom 96-well plates for staining and all centrifugation steps were performed at 1500 rpm at 4° C. for 5 min and samples were kept protected from light throughout the protocol. Cells were pelleted and resuspended in 100 μl of Zombie NIR viability dye (BioLegend) prepared by diluting Zombie NIR dimethyl sulfoxide (DMSO) stock 1000-fold in D-PBS. Cells were stained by incubation for 10 min at room temperature (RT) in the dark, followed by quenching the staining reaction with the addition of 100 μl of Staining Medium (D-PBS containing 2% FBS and 2 mM ethylenediaminetetraacetic acid (EDTA). Cells were pelleted and resuspended in 100 μl of the different antibodies and hybridomas supernatants needed for screening and corresponding isotype controls in freshly prepared staining medium, such as PI-M014 and mIgG2b isotype. All mAbs were tested at the final top concentration of 100 nM (15 μg/ml) followed by an 8-point three-fold serial dilution, including 0 mg/ml control. Staining was carried out for 1 hour (hr) on ice, followed by 2 washes in Staining Medium. Cells were then pelleted and resuspended in 100 μl of allophycocyanin (APC)-conjugated goat anti-mouse IgG (Fc-specific) secondary antibody, prepared by 500-fold dilution of the antibody stocks in Staining Medium, and incubated for 30 min on ice. Plates were then washed two times with Staining Medium, followed by resuspension in 150 μl of the same buffer for acquisition on the flow cytometer (Attune NxT, Life Technologies). Flow cytometry data were analyzed using FlowJo software (version 10.6.1) and data were processed and further analyzed in Microsoft Excel and GraphPad Prism software (version 8). Half-maximal effective concentrations (EC₅₀) were calculated based on geometric mean fluorescence intensities (gMFI). In case when the plates were not able to be analyzed on the cytometer, cells were pelleted after the washes and fixed in 100 μl of 2% paraformaldehyde (PFA), prepared by diluting the 16% (w/v) stock (Thermo Fisher) in DPBS, for 15 min at RT. Cells were then pelleted and the fixative was removed, followed by resuspension in 150 μl of Staining Medium and stored at 4° C. until acquisition on the flow cytometer.

Experiment [4] has as its target T1, N-terminally polyhistidine tagged human …. The experiment is described as follows: ELISA on recombinant human MARCO, 2 mM EDTA. On the procedure: as §1
(ELISA stands for enzyme-linked immunosorbent assay.)

The target is the same in experiment [5]. Put plainly: ELISA on recombinant human MARCO, 10 mM EDTA. As for the experimental part: as §1
The target is the same in experiment [6]. The experiment is described as follows: ELISA on recombinant human MARCO, 50 mM EDTA. As for the experimental part:
as §1

In experiment [7] the target is T3, Cynomolgus MARCO, full length, on cells (cynomolgus, UniProt A0A2K5X0Z2 1-519).
T3 construct: whole, on cells; also called cyno MARCO; CyMARCO
T3 sequence: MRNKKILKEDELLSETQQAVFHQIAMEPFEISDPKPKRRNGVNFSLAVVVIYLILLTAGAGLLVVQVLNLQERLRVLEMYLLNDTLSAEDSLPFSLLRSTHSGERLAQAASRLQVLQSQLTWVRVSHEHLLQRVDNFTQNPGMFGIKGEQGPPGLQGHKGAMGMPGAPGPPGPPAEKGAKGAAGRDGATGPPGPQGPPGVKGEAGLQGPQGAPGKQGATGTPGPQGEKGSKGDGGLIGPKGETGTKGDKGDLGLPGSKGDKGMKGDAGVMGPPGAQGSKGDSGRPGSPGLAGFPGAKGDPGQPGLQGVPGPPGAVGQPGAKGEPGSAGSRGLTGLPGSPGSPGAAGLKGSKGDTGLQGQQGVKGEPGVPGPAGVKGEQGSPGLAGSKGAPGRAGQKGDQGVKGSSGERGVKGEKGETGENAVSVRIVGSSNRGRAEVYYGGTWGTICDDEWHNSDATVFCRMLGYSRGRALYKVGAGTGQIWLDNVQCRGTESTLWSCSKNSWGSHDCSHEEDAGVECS
The experiment is described as follows: flow cytometry, 293T (CyMARCO). On the procedure:
as §3, with “Plates were then washed two times with Staining Medium, followed by resuspension in 150 μl of the same buffer for acquisition on the flow cytometer (Attune NxT, Life Technologies).” left out, “Cells were then pelleted and the fixative was removed, followed by resuspension in 150 μl of Staining Medium and stored at 4° C. until acquisition on the flow cytometer.” left out

The target of experiment [8] is T3, Cynomolgus MARCO, full length, on cells. The experiment is described as follows: flow cytometry, cells overexpressing cyno MARCO. For orientation: A flow cytometer gives signals particle by particle.
In experiment [9] the target is T1, N-terminally polyhistidine tagged human …. The experiment is described as follows: KD (nM) Human; method not given.
Experiment [10] has the same target. The experiment is described as follows: ProbeLife Gator. As for the experimental part: as §2
Experiment [11] concerns the target T2, Human Macrophage Receptor with …. Put plainly: flow cytometry, cells overexpressing human MARCO. As for the experimental part:
as §3, with “Plates were then washed two times with Staining Medium, followed by resuspension in 150 μl of the same buffer for acquisition on the flow cytometer (Attune NxT, Life Technologies).” left out, “Cells were then pelleted and the fixative was removed, followed by resuspension in 150 μl of Staining Medium and stored at 4° C. until acquisition on the flow cytometer.” left out

The target in experiment [12] is T4, hVar3 (RG3036) (human, UniProt Q9UEW3 147-520).
T4 construct: Human MARCO His-CLD-SRCR with Q452D, Y472S and K473S (already in the entry); also called recombinant human SRCR MARCO hVar3 protein
The experiment is described as follows: ELISA on hVar3.

In experiment [13] the target is T5, chimera Mouse MARCO CLD-human MARCO SRCR, on cells.
T5 chain: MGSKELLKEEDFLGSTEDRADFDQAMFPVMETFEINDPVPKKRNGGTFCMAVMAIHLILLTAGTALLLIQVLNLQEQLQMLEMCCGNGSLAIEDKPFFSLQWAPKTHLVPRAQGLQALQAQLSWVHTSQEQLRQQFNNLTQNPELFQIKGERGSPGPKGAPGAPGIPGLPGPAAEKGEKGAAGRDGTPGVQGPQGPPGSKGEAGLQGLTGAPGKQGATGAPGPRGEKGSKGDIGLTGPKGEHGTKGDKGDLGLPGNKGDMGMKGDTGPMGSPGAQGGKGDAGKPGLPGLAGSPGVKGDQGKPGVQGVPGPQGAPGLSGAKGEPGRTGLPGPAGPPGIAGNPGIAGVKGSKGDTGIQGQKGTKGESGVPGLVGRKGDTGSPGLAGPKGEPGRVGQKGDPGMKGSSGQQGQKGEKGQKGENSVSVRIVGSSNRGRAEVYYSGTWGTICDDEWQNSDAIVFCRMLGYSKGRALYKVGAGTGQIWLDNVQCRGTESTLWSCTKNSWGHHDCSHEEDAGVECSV
The experiment is described as follows: flow cytometry, cells overexpressing HuSRCR-mouse CLD chimera.

The koff is the rate constant with which the complex falls apart. Usually kon stands for the second-order rate constant of association. A word on the EC50: it is the concentration giving half of the maximal effect. Lower therefore signals an effect from little substance. Usually Kd stands for the free concentration of one partner at which half of the binding sites on the other are occupied at equilibrium, for simple one-to-one binding.

B1: PI-HX-3011 (antibody, rat IgG2a)
heavy: QIQLVQSGPELKKPGESVKISCKASGYTFTDYAVNWVKQAPGNGLKWMGWINTQTGKPTYADDFKQRFVFSLETSASTSFLQINNLNIEDTATYFCTRDSYYYSSSLDYWGQGVMVTVSSAETTAPSVYPLAPGTALKSNSMVTLGCLVKGYFPEPVTVTWNSGALSSGVHTFPAVLQSGLYTLTSSVTVPSSTWSSQAVTCNVAHPASSTKVDKKIVPRECNPCGCTGSEVSSVFIFPPKTKDVLTITLTPKVTCVVVDISQNDPEVRFSWFIDDVEVHTAQTHAPEKQSNSTLRSVSELPIVHRDWLNGKTFKCKVNSGAFPAPIEKSISKPEGTPRGPQVYTMAPPKEEMTQSQVSITCMVKGFYPPDIYTEWKMNGQPQENYKNTPPTMDTDGSYFLYSKLNVKKETWQQGNTFTCSVLHEGLHNHHTEKSLSHSP
light: DIQMTQSPASLSASLGETVSIECLASAGISNDLAWYQQKSGKSPQLLIYAASRLQDGVPSRFSGSGSGTRFSLKISDMQPEDEADYFCQQSYKYPWTFGGGTKLELKRADAAPTVSIFPPSTEQLATGGASVVCLMNNFYPRDISVKWKIDGTERRDGVLDSVTDQDSKDSTYSMSSTLSLTKADYESHNLYTCEVVHKTSSSPVVKSFNRNEC
notes: Parental rat hybridoma, rat IgG2a
Regarding B1, the “ELISA signal (A450)” value amounted to 1.17 in experiment [1], 0.0636 in [4], 0.0811 in [5] and 0.082 in experiment [6]. For the same molecule, the koff in [2] worked out at 0.000914 s⁻¹. Moreover, the kon in experiment [2] was 401000 M⁻¹ s⁻¹. Moreover, the EC50 in [3] is 0.096 nM; in experiment [7], 0.094 nM.

B2: PI-3030-AB (antibody, human IgG1, kappa)
heavy: not shown
light: DIQMTQSPASLSASLGETVSIECLASAGISNDLAWYQQKSGKSPQLLIYAASRLQDGVPSRFSGSGSGTRFSLKISDMQPEDEADYFCQQSYKYPWTFGGGTKLELKRTVAAPSVFIFPPSDEQLKSGTASVVCLLNNFYPREAKVQWKVDNALQSGNSQESVTEQDSKDSTYSLSSTLTLSKADYEKHKVYACEVTHQGLSSPVTKSFNRGEC
notes: Human IgG1 chimera of PI-HX-3011; also called HX3011-h1 Chimera hIgG1
B2: the EC50 in experiment [8] worked out at 0.38 nM; in experiment [11], 0.55 nM; in [13], 0.17 nM. The dissociation constant Kd in experiment [9] worked out at 0.44 nM. Moreover, in experiment [10], the koff stood at 0.00351 s⁻¹. In addition, the binding result in experiment [12] is “no binding”.

B3: PI-3031-AB (antibody, human IgG1, kappa)
heavy: not shown
light: DIQMTQSPASLSASLGETVSIECLTSEGISNDLAWYQQKSGKSPQLLIYDASRLEDGVPSRFSGSGSGTRYSLKISGMQTEDEADYFCQQSYKYPLTFGSGTKLEIKRTVAAPSVFIFPPSDEQLKSGTASVVCLLNNFYPREAKVQWKVDNALQSGNSQESVTEQDSKDSTYSLSSTLTLSKADYEKHKVYACEVTHQGLSSPVTKSFNRGEC
notes: Human IgG1 chimera of PI-HX-3043; also called HX3043-h1 Chimera hIgG1
On to B3, for which the EC50 in [8] worked out at 1.09 nM; in [11] it was 1.6 nM; in [13] it was 1.07 nM. The Kd in [9] amounted to 0.6 nM. Besides, the koff in experiment [10] came to 0.00281 s⁻¹. Moreover, the binding result in experiment [12] is recorded as “no binding”.
